Measurements: article PMC5286379

Experiments:
Assay in all cases: EMSA
Oct6^151S POU domain = details: homodimer on MORE (OctOct) DNA element TCCTCATGAATATTCATGAGGA; n = 3-13; parent: est. 160; read off a plot
Sox2 HMG (79-aa protein) = details: Sox2-Oct heterodimer on SoxOct DNA element CCATGGACATTGTAATGCAAAAGAAGCTG, n = 3-13, read off a plot
Oct4^151M POU domain = details: homodimer on MORE (OctOct) DNA element TCCTCATGAATATTCATGAGGA; n = 3-13; parent: est. 7; read off a plot

other: cooperativity factor (Oct6^151S POU domain) | other: cooperativity factor (Sox2 HMG (79-aa protein); parent: est. 4.5) | other: cooperativity factor (Oct4^151M POU domain) | other: cooperativity factor (Sox2 HMG (79-aa protein); parent: est. 12) | Substance
4 | 2.5 | – | – | Oct6 POU domain M151S
– | – | 140 | 29 | Oct4 POU domain S151M
